# Reference: patent US20200101109A1 (LENTIGEN TECHNOLOGY, published 2020)
# Target: T1, recombinant human CD33 (human, UniProt P20138 18-259, limits assumed)
# T1 construct: also called coated CD33
# Assay: ELISA, coated recombinant human CD33, purified His/Flag-tagged ScFv, anti-Flag-HRP
# Description: (§1) 50 μl of the diluted recombinant human CD33 in PBS at 2 ug/ml was coated in a 96-well plate at 4° C. overnight. Purified ScFv or VHs (from above) with His and Flag tags were serially diluted and added into the target protein coated wells. After washing, a 1:3000 diluted HRP conjugated anti-Flag antibody was added for 1 hr at RT. After washing, 3, 3, 5, 5′-Tetramethylbenzidine (TMB) substrate was added, 1N H₂SO₄ was added to stop the reaction after incubation at room temperature for 10 minutes, and the O.D. was read at 450 nm to quantify the relative ability of ScFv to bind CD33.
# T1 sequence (P20138 18-259 limits assumed): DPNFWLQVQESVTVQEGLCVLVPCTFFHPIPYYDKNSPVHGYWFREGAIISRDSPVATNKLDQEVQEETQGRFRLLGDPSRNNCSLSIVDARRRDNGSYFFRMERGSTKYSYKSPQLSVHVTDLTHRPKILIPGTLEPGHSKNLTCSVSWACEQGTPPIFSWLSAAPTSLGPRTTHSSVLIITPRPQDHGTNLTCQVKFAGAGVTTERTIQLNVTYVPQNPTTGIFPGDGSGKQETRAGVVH
row,Binder,binding result
1,"m1033-12 (ScFv12) human anti-CD33 ScFv binder, soluble (scFv, also called CD33 ScFv 12; not shown: His and Flag tags) scFv: QVQLQQSGPGLVKPSQTLSLTCAISGDSVSSNSAAWNWIRQSPSRGLEWLGGTYYRSKWYNDYAVSVKSRIIINADTSKNQFSLQLNSVTPEDTAVYYCARGYYYDSTDWFDPWGQGTLVTVSSGGGGSGGGGSGGGGSSSELTQDPTVSVALGQTVRITCQGDSLRSYYASWYQQKPGQAPVLVIYGKNNRPSGIPDRFSGSSSGNTASLTITGAQAEDEADYYCSSRDGSGHPYLFGPGTKVTVL",binds
2,"m1033-15 (ScFv15) human anti-CD33 ScFv binder, soluble (scFv, also called CD33 ScFv 15; not shown: His and Flag tags) scFv: EVQLVQSGAEVKKPGESLKISCKGSGYSFTSYWIGWVRQMPGKGLEWMGIIYPGDSDTRYSPSFQGQVTISADKSISTAYLQWSSLKASDTAMYYCARLTTAGGMDVWGQGTTVTVSSGGGGSGGGGSGGGGSEIVLTQSPLSLPVTLGQPASISCRSSQSLVHSDGNTYLSWLHQRPGQPPRLLMYKISNRFSGVTDRFSGSGSGTDFTLKISRVEAEDVGVYYCMQGIHLPLTFGGGTKLEIK",binds
3,"m1033-9 (ScFv9) human anti-CD33 ScFv binder, soluble (scFv, also called CD33 ScFv 9; not shown: His and Flag tags) scFv: QVQLVQSGAEVKKPGESLRISCKGSGFSFPTYWIGWVRQMPGKGLEWMGIIYPGDSDTRYSPSFQGQVTISADKSISTAYLQWSSLKASDTAMYYCARLVGDGYNTGAFDIWGQGTMVTVSSGGGGSGGGGSGGGGSDIVMTHTPLSLSVTPGQPASISCKSSQSLLHSNGKTYLYWYLQKPGQPPQLLIYGASNRFSGVPDRFSGSGSGTDFTLKISRVEAEDVGVYYCMQSIQLPITFGQGTRLEIK",binds
4,"m1033-10 (ScFv10) human anti-CD33 ScFv binder, soluble (scFv, also called CD33 ScFv 10; not shown: His and Flag tags) scFv: QVQLQQSGPGLVKPSQTLSLTCAISGDSVSSNTAAWNWIRQSPSRGLEWLGRTYYRSKWYNDYAVPVKSRITINPDTSKNQFSLQLNSVTPEDTAVYYCARETYYYGSGSYWDAFDIWGQGTTVTVSSGGGGSGSGGSGGGGSQSVVTQPPSVSAAPGQKVTISCSGSSSNIGNNYVSWYQQLPGTAPKLFIYKNNQRPSEVPDRFSGSKSGTSASLAISGLQSDDEADYYCAAWDDRLNGYVFGTGTKVTVL",binds

# Target: T1, recombinant human CD33
# Assay: ELISA, coated recombinant human CD33, purified His/Flag-tagged VH, anti-Flag-HRP
# Description: as §1
row,Binder,binding result
1,"m1033-4 (VH-4) human anti-CD33 VH domain binder, soluble (VHH, Human heavy chain variable domain only (not camelid), from a phage library, expressed in E. coli HB2151 and purified on Ni-NTA; also called CD33_4; CD33 VH-4; not shown: His and Flag tags) VHH: EVQLVESGGGLVQPGGSLRLSCAASGFTFSSYGMSWVRQAPRQGLEWVANIKQDGSEKYYADSVKGRFTISRDNSKNTLYLQMNSLRAEDTATYYCAKENVDWGQGTLVTVSS",binds
2,"m1033-2 (VH-2) human anti-CD33 VH domain binder, soluble (VHH, Human heavy chain variable domain only (not camelid), from a phage library, expressed in E. coli HB2151 and purified on Ni-NTA; also called CD33 VH-2; not shown: His and Flag tags) VHH: EVQLVESGGGLVQPGGSLRLSCAASGFTFSSYGMSWVRQAPRKGLEWIGEINHSGSTNYNPSLKSRVTISRDNSKNTLYLQMNSLRAEDTATYYCARPLNYYYYYMDVWGKGTTVTVSS",binds
